The assay deals with T1, VipB protein (Vibrio cholerae, VCA0108) (Vibrio cholerae).
T1 construct: GenBank NP_232509; The experiments used strain 2740-80; also called 55 kDa band; Band A
T1 chain: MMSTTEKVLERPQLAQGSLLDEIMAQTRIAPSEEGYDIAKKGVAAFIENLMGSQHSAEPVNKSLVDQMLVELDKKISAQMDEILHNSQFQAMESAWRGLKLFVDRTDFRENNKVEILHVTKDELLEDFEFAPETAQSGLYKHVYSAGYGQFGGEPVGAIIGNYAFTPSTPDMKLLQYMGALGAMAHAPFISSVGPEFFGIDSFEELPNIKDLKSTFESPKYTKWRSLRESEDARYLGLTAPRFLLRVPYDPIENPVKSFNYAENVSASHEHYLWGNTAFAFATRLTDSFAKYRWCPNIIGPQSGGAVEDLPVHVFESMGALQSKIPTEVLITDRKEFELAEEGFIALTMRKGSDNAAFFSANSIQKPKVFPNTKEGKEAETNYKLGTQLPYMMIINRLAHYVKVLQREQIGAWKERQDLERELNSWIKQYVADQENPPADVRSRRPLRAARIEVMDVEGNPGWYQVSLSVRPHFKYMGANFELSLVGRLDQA
Description: purified sheath separated by SDS-PAGE; bands identified by MS.

B1: VipA protein (Vibrio cholerae, VCA0107) (other)
chain: MSKEGSVAPKERINIKYIPATGDAQAEVELPLKTLVVGDFKGHAEQTPLEERATVTVDKNNFEAVMRESELKITATVKNKLTDDENAELPVELNFKSLADFAPDAVASQVPELKKLIELREALVALKGPLGNIPAFRERLQSLLNSEESREKLLAELNLLSGQEEPQA
notes: GenBank NP_232508; The experiments used strain 2740-80; also called WT VipA; 20 kDa band
Take B1: the binding result was “binds”.

The values are drawn from patent publication US20180147273A1 (Harvard, published 2018).
